# Assay: soluble on expression in E. coli; label from the status in PepcDB or PDB records
row,Sequence,soluble on expression in E. coli
1,MEKDKQQLSVEVARLYYQSDYSQQEIANKLNISRPTISRLLKYAKEKGFVQISIADPFADLDNVGNLLKEKYNLLEAHVVFSPVPEYATITEYISKYAAEYMEKTVKNGDIVGVSWGMTMYEIARKIVPQHVKGVEVVQLKGGISHSSVNTYANETIALFADAFQTTPRNLPLPVIFDNAVTKELVEQDRHIHHIIEMGKQANIAIFTVGTVRDEALLFRLGYFDKDETNLLKKQSVGDICSRFFDGDGNISSEEINKRTIGIELEELKLKKRSILVAGGNRKIKAIDGALRGGYANVLIIDQHTAKELLHYQKG,not soluble
2,MKRIRLWGLMAGLLLLLVGCGRAETTGVTKPVTTQGHRYIPTLFFHGWGSSYHAETHMADAIVKAGKTQTIVRAMVAKNGTVTLKGHFRSGDYRPIVEVNFANNRSSDYPTVGRWAKNVVVALQRTYGITSFNMVGHSMGNMAITYYLLANAQNKRLPQLRQQVAIAGHFNGILGMDDSPNQMTLNAAGRPNKLRPAYRQLLGLRRVYPRQQVRVLNIYGDKGDGTHSDGSVSNASSRSLRYLVAARARSYREVKLTGKHAQHSQLHENAQVDRLLIDFLWPTH,not soluble
3,ARSTNTFNYATYHTLDEIYDFMDLLVAQHPELVSKLQIGRSYEGRPIYVLKFSTGGSNRPAIWIDLGIHSREWITQATGVWFAKKFTENYGQNPSFTAILDSMDIFLEIVTNPNGFAFTHSENRLWRKTRSVTSSSLCVGVDANRNWDAGFGKAGASSSPCSETYHGKYANSEVEVKSIVDFVKNHGNFKAFLSIHSYSQLLLYPYGYTTQSIPDKTELNQVAKSAVAALKSLYGTSYKYGSIITTIYQASGGSIDWSYNQGIKYSFTFELRDTGRYGFLLPASQIIPTAQETWLGVLTIMEHTVNN,soluble
4,MSLCAREPRVPADRLVAEMVPPPRFDSVRFGTYVPDPNQPSQSEAVRVLEDFAGGLGEAPGTGGGRRGFFGLGRGRAPKTPAGPRGVYLDGGYGVGKTHLLASLWHATPAEPSRKAFGTFVELTNLVGALGFQQTVQTLSGHRLLCIDEFELDDPGDTVLVSSLLARLVEAGVALAATSNTLPGKLGEGRFAAADFLREIQGLSAHFRALRIDGEDYRHRGLPEAPAPYSDEQVTRAARATEGASLDDFAALLDHLARVHPSRYGALTDGLTAVCLTGVHPVPDQSTALRLVVLADRLYDREVPVLASGLPFDRLFGEEMLKGGYRKKYFRAISRLTALARDAARLVDTAAAALEHHHHHH,not soluble
5,MGSDKIHHHHHHMESVYLFSSGTLKRKANTICLETESGRKYIPVENVMDIKVFGEVDLNKRFLEFLSQKRIPIHFFNREGYYVGTFYPREYLNSGFLILKQAEHYINQEKRMLIAREIVSRSFQNMVDFLKKRKVRADSLTRYKKKAEEASNVSELMGIEGNAREEYYSMIDSLVSDERFRIEKRTRRPPKNFANTLISFGNSLLYTTVLSLIYQTHLDPRIGYLHETNFRRFSLNLDIAELFKPAVVDRLFLNLVNTRQINEKHFDEISEGLMLNDEGKSLFVKNYEQALRETVFHKKLNRYVSMRSLIKMELHKLEKHLIGEQVFGSEE,not soluble
6,MSKIIGSDRVKRGMAEMQKGGVIMDVVNAEQARIAEEAGAVAVMALERVPSDIRAAGGVARMANPKIVEEVMNAVSIPVMAKARIGHITEARVLEAMGVDYIDESEVLTPADEEYHLRKDQFTVPFVCGCRNLGEAARRIGEGAAMLRTKGEPGTGNIVEAVRHMRQVNSEVSRLTVMNDDEIMTFAKDIGAPYEILKQIKDNGRLPVVNFAAGGVATPQDAALMMELGADGVFVGSGIFKSEDPEKFAKAIVQATTHYQDYELIGRLASELGTAMKGLDINQLSLEERMQERGWMAGDPLEHHHHHH,not soluble
7,MGSDKIHHHHHHMPAIIKQFFFKSHEMTLSDPRFLSLNQWLNAYFSDEVTPVLISGDASFRRYFRITTPDATFIAADSPPQLVPIAPFIALSNAYAAVGLTVPKVIHADAAQGFMLMSDLGDTQLLSVLNVQNVADYYRQALDLLPQVASVVASQHLDSGLVQPLPLYDEAFVRRELHIFTEWLLGTHLNLSLDESEQQMLSHSFDLLVDYALSQPSVGMHRDFHSRNLMLQAGELCVIDFQDAVVGPVTYDAVSLLRDCYIRWPQPLVADLMQYHYQQALALGFIPALTTLEQYQTWFDLMGLQRHIKAVGIFARLNYRDSKPAYMADIPLTLTYIVDIAMQYPELVPFAHWLTRRVLPAFTASQSLSEVKQ,not soluble
8,MAHHHHHHMTSLHPFEYAFMAGASFSPEERVQLTSSLPLLSVQTKRKNLVLWGKIFGCKADYIIVEAFDDDAVVEPELYHTLDEGRTFSLLGTFSSVFSTCPGYSSCSGLQQAEWKQFMLLGMRGPFFGDPAYEYRVSNHSSSDSAPEIQSVKESVRLALFVEEFDHECRVVPRGAYMKAERQATATIASTTGAEVDAGERAEVRRNTALADFRERRRERCRCGTTTTCVP,not soluble
9,MPMVRNPMFLRMLGGLALALMLSAGRVATADTGTEAARAVVDKLNGALIDVMRNAKQLGYQGRYKKLDPIVREVFQFEAVAQIALGAHWKTLNDDQKREFVKKLTELSIATYAAQFNSYAGEQFQYDSDQAVKPDRVVVRYKMVAPKETPVKFDYMVNQFDGKWEIINIVVDGISDLALKKAQYTSVIDREGFDVLMSKLTQKITDYANNENNSKSLEHHHHHH,soluble
10,MSTEKLEASEEPQAPLANTSETNSIKGDTENIVTVFDLANEIEKSLKDVQRQMKENDDEFSRSIQAIEDKLNKMSR,not soluble
11,MSIERSSPIPLYFQLAGELRAAIESGAYPPGSKLPTEGELCQQYDVSRSVVRQALQSLAHDNLIETERGRGAFVLERKVPIALVQQLDPLLESMAKAGFKLTTRVLKQERIKPPAHVAEQIGENDAVFLERLRYADGVVFLVVRNFLPYSRFPDLLQSKELEDVSLYQYLAKRYNAVATTGKRQVELARINEEAIAAQLHVEMNSYVLFNREVTYDQNKQVLEYYESWHHPDRTRLTIDLHRTY,not soluble
12,MSFFDELKTSLEEAVEIKQGLKEPARVTRYEIADVKAIREQLNVSQSEMAKALGTSVDTIKSWESKRRNPTGLAAKVLATIKENPAFFRELASH,not soluble
13,PTAQQLQLTTLDGKPFDPAGLKGKWLLGVADQAACPESCARKLFITRNSHASQGKNVDRVQRVWFITDDGEVPQKVLDAYRGTLMLRARPEQLGRYLLGQDAAAPAALLGPMWVIDPLGNLMLQFPPDVDGVKVRKDISRLLYNSR,not soluble
14,SDIELIHCGADLVERMMNDIRQAASSVHMMFFIMKNDEVSHNMYTLLKTKAQAGVSVYLLLDWAGCRAIKKTALQTMKNAGVHVHVMNRPRFPFFFFHMQKRNHRKITVIDGKIGYIGGFNIAEEYLGKKAKFGNWEDYHLRMIGEGVHDLQTLFASDLKRNTGIELGSDVWPKLQQGTISHKIYATDGYSLENIYLANIAQAKNRLTVCTPYYIPSKPLQEALINARKNGVSVRIIVPMKSDHPLVREAAFTYYSELLDAGCLIYRYYQGFYHVKALIIDDHLSIIGTANFDKRSLFLNEEVNVEIDDEAFTSEVYATIEEDMKKSELLTMEDFSKRTFRQRPAEWLGR,not soluble
15,VTRKSLLERCMEMEKEGYTGCLLSGGMDSRLKVPLDKFKDEIKAIKEKTKLKINAHVGFVDESDLEWLKYIDVVSLDFVGDNEVIKRVYKIDKKVEDYLRVLDLLTENGIRVAPHITIGLDFGKVHWEFKAIDILVNYPIDVLVLDVLIPTPGTEMANVPKVPVDEAIRVVKYAREKFSGELSIGCMRPFGEWRVKFDREAILAGVDRI,not soluble
16,MLINARISVRSYPKYQRFSFFYALLFKRIDLILAQSKEDKKRLLNLGAKKVVDFLNIKRFSKPVITSFYPKNPSALNIVLASTHEGEEELGLKAFLELKKTFKNARLIVVPRHPERFKSVQDLLQNTLKTTPFSWECFSSKGFVECDILLVDSLGELNNFYQIADIVILGGSFVKMGGHNPLEPAFFNARLITGEYIFNQVALFELVKPYKIVPKEDLLDALLDYKNLGMARFLENGHDLNELLAFIKHLEHHHHHH,soluble
17,MKFTFEVPAPLQQVAPISYYESLLSNYRYRDISFLEMSTTGKILGECTIGENNYTIQGSECDGLISSIEILDVKEADSFLDIPLSLPNRKFVKALKDLGIEFDHDRDGVTIHHENRVIALSYQFGKVAAICWDSE,not soluble
18,MASVTFSVPKGFTEFSGLRSSSASLPFGKKLSSDEFVSIVSFQTSAMGSSGGYRKGVTEAKLKVAINGFGRIGRNFLRCWHGRKDSPLDIIAINDTGGVKQASHLLKYDSTLGIFDADVKPSGETAISVDGKIIQVVSNRNPSLLPWKELGIDIVIEGTGVFVDREGAGKHIEAGAKKVIITAPGKGDIPTYVVGVNADAYSHDEPIISNASCTTNCLAPFVKVLDQKFGIIKGTMTTTHSYTGDQRLLDASHRDLRRARAAALNIVPTSTGAAKAVALVLPNLKGKLNGIALRVPTPNVSVVDLVVQVSKKTFAEEVNAAFRDSAEKELKGILDVCDEPLVSVDFRCSDFSTTIDSSLTMVMGDDMVKVIAWYDNEWGYSQRVVDLADIVANNWK,soluble
19,MKIMAICGSGLGSSFMVEMNIKKVLKKLNIDAEVEHSDLSSATPGAADLFVMAKDIAASASVPESQLVVINNIIDINELETQLRAWFAKQ,not soluble
20,MGSDKIHHHHHHMKIVKFGGSSLSSGVQIRKVFQIVKSDPERRIVVVSAPGKRFKGDVKITDLLLKLAEAILNEEKTAQIYEQIFLRYQAIGDFFKIPRSGIEQLKEHLYSVAQADYPSNDFFRAALSAQGENMSAHLITLIFKQLGLKARLLTPKEVGLTVSGEARKAQILPGSYAKIAKTKFTDNEVLIFPGFFGITKNGLINTFSRGGSDITGAILARGFGADLYENFTDVDSIYAVNPGLVADPAPIKEMTYNEMRELSYAGFAVFHDEAILPAIQGKIPICVKNTNRPEMPGTKIVPRDKVSHKNKITGIASSHHFQAIYLHRYLINREVGFTAKILKIMADLNISYEHMPSGIDDLTIILDKNQLTNGRKEKLTQRIKDEIQPDDLQWRNDYAIIMVVGEGLVNRVGAMADIVDPIRDAGISLTMVNQGSSEISIMLGVRPEDEQKAVKAIYNDHFENGHPKKELQIPRASFKSVSKSLIANFFV,not soluble
21,MGSDKIHHHHHHMIYMIIHKFIIHVLDKNSDVPILNDFEGKVNQEVDGFFQKAIKRIAKDEDLRKGVFKDYNDNLIKNCCEQIIYDESTFLKNSKEIASYLFDVMKINAALESCDLAICLYTIKDEKSVAILKLDYKKLYTHSIEFVDDKFNIQMVSNEIGIPETLRQKQGALISLSGINDEFHLRLLDKDAEKEGSESKFVTEFLNAKKIDDDKYKTKVFKNTAENWITNALSNDIKQAEDVRSILNYTLKEKHEVDINDFVDNSIKDDELKDSFKEHMEEKGLDESFSIDKKWVEKKLKKRSIKTDNGFDIKGNLTDFEDPMKYTVKQNQDGTIDIIIKNVTFYEEK,not soluble
22,MGSSHHHHHHSSGLVPRGSHMNVKKFPEGFLWGAATSSYQIEGAWNEDGKGESIWDRFTRIPGKIKNGDSGDVACDHYHRYEQDLDLMRQLGLKTYRFSIAWARIQPDSSRQINQRGLDFYRRLVEGLHKRDILPMATLYHWDLPQWVEDEGGWLSRESASRFAEYTHALVAALGDQIPLWVTHNEPMVTVWAGYHMGLFAPGLKDPTLGGRVAHHLLLSHGQALQAFRALSPAGSQMGITLNFNTIYPVSAEPADVEAARRMHSFQNELFLEPLIRGQYNQATLMAYPNLPEFIAPEDMQTISAPIDFLGVNYYNPMRVKSSPQPPGIEVVQVESPVTAMGWEIAPEGLYDLLMGITRTYGKLPIYITENGAAFDDQPDQSGQVNDPQRVGYFQGHIGAARRALADGVDLRGYYAWSLLDNFEWAEGYSKRFGIIYVDFETQQRTLKQSAQWYRDVIANNGLED,soluble

# From the DeepSol protein solubility set
